Among the data in patent US20240368668A1, “SUBSTRATES AND BIOMARKERS OF ADAMTS7” (The Broad Institute, Inc., priority 2021, published 2024) are logFC.mWT.over.Luc and logFC.mWT.over.Lux values, retold here.

Square brackets hold non-standard residues; d marks the D form. Ends that are not written are not given here. Met(O) = CS(=O)CC[C@H](N)C(=O)O

For the first test, the target named is T1, mouse ADAMTS7 (Mus musculus, UniProt Q68SA9).
T1 construct: Full-length mouse Adamts7 1-1857 (Uniprot Q68SA9, WT or E373Q catalytic mutant); expressed in transfected cells; host or cells: Human Coronary Artery Smooth Muscle Cells (HCA-SMC, Lonza), adenovirus 50 MOI
T1 sequence (Q68SA9 221-1657): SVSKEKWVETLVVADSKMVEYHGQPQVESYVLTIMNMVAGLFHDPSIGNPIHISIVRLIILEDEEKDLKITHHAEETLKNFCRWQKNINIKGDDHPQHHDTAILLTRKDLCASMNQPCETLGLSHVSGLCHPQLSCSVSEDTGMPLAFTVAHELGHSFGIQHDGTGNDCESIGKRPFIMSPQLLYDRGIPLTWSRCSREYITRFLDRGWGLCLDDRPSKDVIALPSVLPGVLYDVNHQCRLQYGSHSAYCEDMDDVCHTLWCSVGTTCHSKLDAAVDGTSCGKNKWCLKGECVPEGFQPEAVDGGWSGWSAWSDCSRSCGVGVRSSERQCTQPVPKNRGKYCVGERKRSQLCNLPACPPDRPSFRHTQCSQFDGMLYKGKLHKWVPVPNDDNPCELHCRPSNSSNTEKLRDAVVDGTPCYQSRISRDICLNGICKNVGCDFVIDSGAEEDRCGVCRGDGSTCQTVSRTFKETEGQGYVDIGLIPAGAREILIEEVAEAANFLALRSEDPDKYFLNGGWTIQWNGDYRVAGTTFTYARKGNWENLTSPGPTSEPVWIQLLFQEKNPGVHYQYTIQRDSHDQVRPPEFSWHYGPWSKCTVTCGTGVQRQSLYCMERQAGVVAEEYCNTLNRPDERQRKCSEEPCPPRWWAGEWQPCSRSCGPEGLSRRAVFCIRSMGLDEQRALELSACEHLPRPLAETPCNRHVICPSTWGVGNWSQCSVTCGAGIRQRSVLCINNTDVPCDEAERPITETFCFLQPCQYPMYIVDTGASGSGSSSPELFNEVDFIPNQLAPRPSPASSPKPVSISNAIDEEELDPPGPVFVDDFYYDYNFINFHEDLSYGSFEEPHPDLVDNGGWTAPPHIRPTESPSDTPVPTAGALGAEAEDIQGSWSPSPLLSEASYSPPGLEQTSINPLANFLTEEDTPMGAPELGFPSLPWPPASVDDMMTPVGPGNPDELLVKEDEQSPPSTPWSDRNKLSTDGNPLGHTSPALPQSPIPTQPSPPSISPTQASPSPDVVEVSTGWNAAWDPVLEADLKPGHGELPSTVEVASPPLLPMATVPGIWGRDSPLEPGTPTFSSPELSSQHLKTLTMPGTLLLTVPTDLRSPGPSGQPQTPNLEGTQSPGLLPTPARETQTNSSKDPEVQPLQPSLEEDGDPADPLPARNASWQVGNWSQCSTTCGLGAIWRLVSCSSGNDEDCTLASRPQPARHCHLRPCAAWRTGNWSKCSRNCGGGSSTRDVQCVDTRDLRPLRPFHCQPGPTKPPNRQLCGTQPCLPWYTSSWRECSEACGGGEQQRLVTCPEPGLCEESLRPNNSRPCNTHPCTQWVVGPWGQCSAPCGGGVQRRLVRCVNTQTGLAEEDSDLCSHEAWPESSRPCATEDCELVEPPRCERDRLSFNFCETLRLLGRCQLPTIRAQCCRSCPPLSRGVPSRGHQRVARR
Nature of the test: TMT10 TAILS N-terminomics, SMC2 experiment (process replicates, trypsin/AspN digest). It is filed as cell-based. The conditions noted are these: SMC2_TAILS HC; log fold change of N-terminal peptide, Ad-mADAMTS7 WT over Luc. A digest of the protocol:
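Full-length mouse ADAMTS7 (WT or E373Q mutant, C-terminal 3xFLAG) or luciferase was transduced via adenovirus, 50 MOI, into HCA-SMC (SMC1, SMC2) or HUVEC. SMC1: pooled media, technical triplicates 400 ug; SMC2: process triplicates 300 ug; HUVEC: process triplicates 200 ug, bFGF2 10 ng/ml.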
Take “LOXL1_218 (AVASAGVIYPYQPR; listed as Homo sapiens)”: the logFC.mWT.over.Luc is listed as 1.72.

Regarding “LOXL2_45 (HQPQAPANVAKIQLR; listed as Homo sapiens)”, the logFC.mWT.over.Luc came to 2.62.

The substance “LTBP2_79 (VAGLQPVER; listed as Homo sapiens)” registered a logFC.mWT.over.Luc of 1.54.

Regarding “LTBP2_250 (SAAGEGTLAR; listed as Homo sapiens)”, the logFC.mWT.over.Luc is recorded as 2.49.

Substance “LTBP2_290 (QHVGLSR; listed as Homo sapiens)” yielded a logFC.mWT.over.Luc of 2.94.

The substance “LTBP2_502 (LVENSVETRPPPWLPASPGHSLW; listed as Homo sapiens)” came in with a logFC.mWT.over.Luc of 2.66.

In turn, “LTBP3_103 (LTGSGFR; listed as Homo sapiens)” had a logFC.mWT.over.Luc of 4.80.

Substance “LTBP3_208 (FLVPLGPGQISA; listed as Homo sapiens)” returned a logFC.mWT.over.Luc of 1.51.

“MAP4_815 (AVASTGPSSR; listed as Homo sapiens)”: the logFC.mWT.over.Luc was 1.68.

As to “MAP4_816 (VASTGPSSR; listed as Homo sapiens)”, the logFC.mWT.over.Luc came to 2.53.

As to “MMP1_100 (FVLTEGNPR; listed as Homo sapiens)”, the logFC.mWT.over.Luc came to 2.35.

Consider “MMP1_185 (FQPGPGIGG; listed as Homo sapiens)”, for which the logFC.mWT.over.Luc worked out at 1.08.

The substance “NBEA_1892 (LEKVAPLLR; listed as Homo sapiens)” showed a logFC.mWT.over.Luc of 2.04.

As for “NID1_360 (FHQQHPQVI; listed as Homo sapiens)”, the logFC.mWT.over.Luc was determined as 2.47.

For the substance “NID2_291 (HSSVPLGR; listed as Homo sapiens)”, the logFC.mWT.over.Luc was determined as 3.16.

“NID2_951 (YAYPGAR; listed as Homo sapiens)” yielded a logFC.mWT.over.Luc of 2.73.

Take “PAK4_141 (HSEAGGGSG; listed as Homo sapiens)”: the logFC.mWT.over.Luc was 2.47.

In the case of “PLIN3_75 (VSGAQPILSKL; listed as Homo sapiens)”, the logFC.mWT.over.Luc is given as 2.32.

On to “POSTN_727 (IITGPEIKYTR; listed as Homo sapiens)”, for which the logFC.mWT.over.Luc is 2.51.

Consider “PPP1R18_295 (LSETLTR; listed as Homo sapiens)”, for which the logFC.mWT.over.Luc is given as 2.35.

The substance “PTPRF_1859 (MRYEGVVDMFQTVKTLR; listed as Homo sapiens)” had a logFC.mWT.over.Luc of 2.51.

“QSOX1_210 (HKGVAVR; listed as Homo sapiens)”: the logFC.mWT.over.Luc came out at 1.20.

In the case of “SHC2_267 (VAKDPINQRACHIL; listed as Homo sapiens)”, the logFC.mWT.over.Luc is 1.89.

As to “SPOCK1_27 (LAGGAGPNHGNFL; listed as Homo sapiens)”, the logFC.mWT.over.Luc was determined as 2.03.

“SRGN_59 (LLPGESNKIPR; listed as Homo sapiens)” registered a logFC.mWT.over.Luc of 3.71.

In turn, “TNPO2_744 (VQ[Met(O)]VLNNLVEII[code n]RP[code n]TPKTLLE; listed as Homo sapiens)” registered a logFC.mWT.over.Luc of 4.08.

Regarding “TNS1_236 (QEGLAGYQR; listed as Homo sapiens)”, the logFC.mWT.over.Luc turned out to be 1.49.

In turn, “TRGC2_86 (HRCIVRHENNK; listed as Homo sapiens)” had a logFC.mWT.over.Luc of 3.16.

“TTN_5975 (VKEPPVEFTKPL; listed as Homo sapiens)” returned a logFC.mWT.over.Luc of 3.15.

As for “VAT1_42 (AASPPLLR; listed as Homo sapiens)”, the logFC.mWT.over.Luc is given as 3.22.

With “VIM_314 (QESTEYR; listed as Homo sapiens)”, the logFC.mWT.over.Luc turned out to be 3.06.

“VIM_333 (LKGTNESLER; listed as Homo sapiens)” came in with a logFC.mWT.over.Luc of 3.75.

The test is the same for the next values; noted with them: SMC2_TAILS HC; log fold change, mWT over Luc.
“COL1A2_80 (QYDGKGVGLGPGPMGLMGPR; listed as Homo sapiens)” registered a logFC.mWT.over.Luc of 0.82.

For the substance “COL1A2_270 (VGNAGPAGPAGPR; listed as Homo sapiens)”, the logFC.mWT.over.Luc is on record as 3.42.

In turn, “COL1A2_305 (LTGAKGAAGLPGVAGAPGLPGPR; listed as Homo sapiens)” returned a logFC.mWT.over.Luc of 1.60.

The substance “COL1A2_630 (VGTAGPSGPSGLPGER; listed as Homo sapiens)” showed a logFC.mWT.over.Luc of 2.03.

The substance “COL1A2_866 (LLGAPGILGLPGSR; listed as Homo sapiens)” came in with a logFC.mWT.over.Luc of 2.76.

Consider “COL1A2_960 (AGAPGPHGPVGPAGKHGNR; listed as Homo sapiens)”, for which the logFC.mWT.over.Luc was found to be 2.71.

Regarding “COL1A2_1028 (LQGLPGIAGHHGDQGAPGSVGPAGPR; listed as Homo sapiens)”, the logFC.mWT.over.Luc was 1.73.

In turn, “COL4A2_71 (YNGPPGLQGFPGLQGR; listed as Homo sapiens)” showed a logFC.mWT.over.Luc of 1.38.

The substance “COL18A1_1505 (LQPPVVQLHDSNPYPR; listed as Homo sapiens)” displayed a logFC.mWT.over.Luc of 1.46.

The same test, now with this note: log fold change, ADAMTS7 WT over luciferase.
Take “SERBP1_56 (QAAAQTNSNAAGKQLR; listed as Homo sapiens)”: the logFC.mWT.over.Lux was 3.97.

As for “SRGN_59 (LLPGESNKIPR; listed as Homo sapiens)”, the logFC.mWT.over.Lux came to 4.23.

For “THBS2_290 (LSENLKR; listed as Homo sapiens)”, the logFC.mWT.over.Lux is 4.65.

For “VIM_314 (QESTEYR; listed as Homo sapiens)”, the logFC.mWT.over.Lux amounted to 2.63.

Regarding “VIM_333 (LKGTNESLER; listed as Homo sapiens)”, the logFC.mWT.over.Lux is listed as 4.37.
